The results in this text go back to patent US20240368617A1, “NPR1 VARIANT TO ENHANCE PLANT RESISTANCE TO BIOTIC AND ABIOTIC STRESSES AND METHOD THEREOF” (Duke University, published 2024).

Data set [1] concerns the molecule itself. Kind of data set: hydrogen peroxide-induced oligomerization, non-reducing SDS-PAGE. The method, then: WT NPR1 BTB/BHB (Thr39-Lys262) and the npr1(C156A), npr1 (C82A) and npr1(C212V/C216A/C223L) mutants were cloned into the pTrcHis vector (Thermo Fisher Scientific) as His10-MBP fusion proteins with a PreScission protease site following MBP and a C-terminal Strep tag. The proteins were expressed and purified similarly to the NPR1 (²SBD) as described above. The NPR1 BTB/BHB WT and mutant proteins at a concentration of 25 μM were incubated with 1 mM hydrogen peroxide in a buffer containing 125 mM HEPES and 150 mM NaCl at pH 8.0 at room temperature for 45 min. The oxidized samples were incubated with 50 mM iodoacetamide for 5 min, mixed with 4× SDS loading dye and analyzed using SDS-PAGE in the absence of any reducing reagent.

The next data set deals with T1, TGA3 (Asn87-Thr384) (Arabidopsis thaliana, UniProt Q39234 Q39234:87-384).
T1 sequence: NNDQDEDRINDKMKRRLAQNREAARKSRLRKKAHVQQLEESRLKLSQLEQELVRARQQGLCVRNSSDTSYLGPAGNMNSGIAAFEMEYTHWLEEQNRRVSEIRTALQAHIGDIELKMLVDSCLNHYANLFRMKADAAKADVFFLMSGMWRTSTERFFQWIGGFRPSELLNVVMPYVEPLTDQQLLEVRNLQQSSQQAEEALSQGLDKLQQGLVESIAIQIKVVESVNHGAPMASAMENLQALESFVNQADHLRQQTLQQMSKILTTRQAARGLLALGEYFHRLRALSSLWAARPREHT
Kind of data set: EMSA. The settings on record: tags: His10-MBP (PreScission site) N-terminal, C-terminal tandem Flag-HA; AT1G22070; E. coli; label: 6-FAM. How it is done: The npr1(dim) mutant (L49D/F53D/V56D/V83K) was cloned into the pTrcHis vector (Thermo Fisher Scientific) as a His10-MBP fusion protein containing a PreScission protease site following MBP and a C-terminal Strep tag, and was expressed and purified similarly to the WT NPR 1 protein. Purified TGA3 (Asn87-Thr384) at a concentration of 0.6 μM and WT NPR1 or the npr1(dim) mutant at a concentration of 8 μM were used in the EMSA with the 6-fluorescein (6-FAM)-labelled oligonucleotide probes (200 nM) containing the LS5 and LS7 as-I cis-elements of the SA-responsive PRI gene promoter (LS5/LS7, 6-FAM-C-ggg[…]ggg) or DNA sequences with the two as-1 regions replaced with adenosines (LS5/LS7, 6-FAM-C-ggg[…]ggg), with the LS7 as-1 element replaced with adenosines (LS5/LS7, 6-FAM-C-ggg[…]-GAggg) or with the LS5 as-1 element replaced with adenosines (LS5/LS7, 6-FAM-C-ggg[…]ggg) as well as their complementary oligonucleotides (Integrated DNA Technologies). The uppercase bases indicate the LS5/LS7 sequence; the lowercase bases indicate overhangs outside the LS5/LS7 sequence; and bases replaced with adenosines are indicated with A's in the small capital font. Pairs of complementary DNA strands were annealed before the binding reaction. For each binding reaction, the desired protein combination was mixed with the target DNA probe together with 30 ng/μL of poly (dI-dC) (non-specific competitor, Thermo Fisher Scientific) in a binding buffer containing 20 mM HEPES (pH 8.0), 300 mM NaCl, 10% glycerol, 1 mM DTT and 0.2 mM SA. […] After electrophoresis, the gel was scanned with the Typhoon FLA 7000 imager (GE Healthcare).

Data set [2] deals with the molecule itself. Kind of data set: cryo-EM of the NPR1-TGA3 complex; self-association.
Data set [3] addresses T2, Full-length Arabidopsis NPR1 with C-terminal Strep tag, expressed in E. coli (NPR1-Strep3) (Arabidopsis thaliana, UniProt P93002 1-593).
T2 construct: Full-length NPR1; Homodimer; Purified with 0.2 mM salicylic acid; also called WT NPR1; not shown: C-terminal Strep tag (Strep3) with its last Lys mutated to Arg
T2 sequence: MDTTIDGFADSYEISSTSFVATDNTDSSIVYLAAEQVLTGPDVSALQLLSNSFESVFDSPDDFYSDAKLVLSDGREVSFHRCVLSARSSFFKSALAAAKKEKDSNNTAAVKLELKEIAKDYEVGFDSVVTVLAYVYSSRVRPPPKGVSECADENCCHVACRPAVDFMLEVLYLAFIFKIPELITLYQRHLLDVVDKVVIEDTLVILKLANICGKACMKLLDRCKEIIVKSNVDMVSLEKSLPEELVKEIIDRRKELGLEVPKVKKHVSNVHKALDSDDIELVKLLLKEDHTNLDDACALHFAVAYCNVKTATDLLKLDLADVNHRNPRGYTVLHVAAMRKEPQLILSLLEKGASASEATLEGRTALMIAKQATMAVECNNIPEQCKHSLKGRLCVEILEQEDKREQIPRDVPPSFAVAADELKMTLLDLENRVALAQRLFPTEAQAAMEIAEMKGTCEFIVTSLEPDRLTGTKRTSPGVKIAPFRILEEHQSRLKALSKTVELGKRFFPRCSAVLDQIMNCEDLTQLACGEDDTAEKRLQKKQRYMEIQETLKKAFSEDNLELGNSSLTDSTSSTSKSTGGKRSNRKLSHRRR
Briefly: cryo-EM of BS3 cross-linked NPR1-TGA3-LS7 DNA complex. How it is done:
2. NPR1 TGA3 LS7-DNA cryo-EM sample preparation. The purified NPR1-Strep3 (20 μM), TGA3-Flag-HA (48 μM) and the LS7 DNA containing a palindromic TGA-binding site (underlined in 5′-[…]-3′, 57.6 μM) were mixed and incubated at 4° C. for 30 min. The protein-DNA complex was cross-linked with 1.5 mM BS3 (Thermo Fisher Scientific) at room temperature for 30 min and quenched with 50 mM Tris (pH 8.0). The protein-DNA mixture was further purified using a Strep-Tactin column (Qiagen) and size-exclusion chromatography (Superose 6 in-crease 10/300 GL, Cytiva) in a buffer containing 25 mM HEPES (pH 7.5), 150 mM NaCl, 2 mM DTT and 0.2 mM SA.
3. Cryo-EM sample preparation and data collection. Cryo-EM grids containing the NPR1-TGA3-LS7-DNA complex were prepared using the Leica EM GP2 Automatic Plunge Freezer at 4° C. and 85% humidity. The UltrAuFoil R1.2/1.3 300-mesh grids (Quantifoil) were glow-discharged using the PELCO easiGlow Glow Discharge Cleaning System (Ted Pella). A 3 μl sample of NPR1-TGA3-LS7-DNA (˜1.3 mg/ml) was applied to the grid, incubated for 60 s in the chamber and blotted for 2.4 s with Whatman No. 1 filter paper (Whatman International) to re-move excess sample, and then plunge-frozen into liquid ethane cooled by liquid nitrogen. […]

Data set [4] concerns the molecule itself. Kind of data set: X-ray crystal structure, 1.5 A; self-association. The method, then:
The Arabidopsis TGA3 NID (Ala160-Thr384) was cloned into the pTrcHis vector (Thermo Fisher Scientific) as a His10-MBP fusion protein containing a PreScission protease site following MBP and a C-terminal tandem Flag-HA tag. The purification procedure was per-formed similarly to that of Arabidopsis TGA3 (Asn87-Thr384) except that the size-exclusion chromatography buffer contained 20 mM HEPES (pH 7.5), 150 mM NaCl and 1 mM TCEP. Protein crystals were grown using the sitting-drop vapor diffusion method at 20° C. Each drop contained 1 μl of the protein solution mixed with 1 μl of the reservoir solution (0.1 m sodium acetate at pH 5.0, 20% (v/v) MPD). Diffraction quality protein crystals were collected after 1 week and cryoprotected with the reservoir solution also containing 25% glycerol.

Data set [5] concerns the molecule itself. Kind of data set: X-ray crystal structure of NPR1(deltaSBD); tetramer in the crystal. How it is done:
5. X-ray crystallography studies of NPR1 (ΔSBD)) and the TGA3 NID. Arabidopsis NPR1 (²SBD) (Thr39-Asp410) was cloned into the pTrcHis vector (Thermo Fisher Scientific) as a His10-MBP fusion protein containing a PreScission protease site following MBP and a C-terminal Strep tag. Expression and purification of NPR1 (²SBD) was performed using similar procedures to those described above for E. coli-expressed NPR1, except that the size-exclusion chromatography buffer contained 20 mM HEPES (pH 7.5), 150 mM NaCl and 1 mM TCEP. Protein crystals were grown using the sitting-drop vapor diffusion method at 20° C. Each drop was prepared by mixing 1 μl of the protein solution at 6 mg ml-1 with 1 μl of the reservoir solution containing 0.1 M HEPES (pH 7.5), 19% PEG 3350, 0.25 m tri-sodium citrate. Diffraction-quality protein crystals were collected after 1 week and cryoprotected with the reservoir solution containing 25% glycerol.

B1: WT NPR1 BTB/BHB (Thr39-Lys262) with C-terminal Strep tag (other)
chain: TGPDVSALQLLSNSFESVFDSPDDFYSDAKLVLSDGREVSFHRCVLSARSSFFKSALAAAKKEKDSNNTAAVKLELKEIAKDYEVGFDSVVTVLAYVYSSRVRPPPKGVSECADENCCHVACRPAVDFMLEVLYLAFIFKIPELITLYQRHLLDVVDKVVIEDTLVILKLANICGKACMKLLDRCKEIIVKSNVDMVSLEKSLPEELVKEIIDRRKELGLEVPK
notes: E. coli expressed, His10-MBP fusion with PreScission site, purified as NPR1(deltaSBD); Used in hydrogen peroxide oxidation assay; also called NPR1 BTB-BHB domain; NPR1 (residues Thr39-Lys262); not shown: C-terminal Strep tag
As to B1, the binding result in data set [1] is given as “binds”.

B2: PR1 promoter LS5-/LS7- (both as-1 replaced) (dsDNA)
DNA 1: GGGCTAAAAAAAAAGTAAAATAGAAAAAAAAAGAGGG
DNA 2: CCCTCTTTTTTTTTCTATTTTACTTTTTTTTTAGCCC
As for B2, the binding result in the data set with TGA3 (Asn87-Thr384) is given as “no binding”.

B3: Arabidopsis TGA3 (Asn87-Thr384) with C-terminal tandem Flag-HA tag (other, Arabidopsis thaliana, UniProt Q39234 87-384, looked up)
chain: T1 sequence
notes: range 87-384; E. coli expressed; His10-MBP removed with PreScission protease; two dimers per NPR1 dimer in the full complex; also called TGA3-Flag-HA; not shown: C-terminal tandem Flag-HA tag
For B3, the binding result in data set [2] and in data set [3] was “binds” throughout.

B4: Arabidopsis TGA3 NID (Ala160-Thr384) with C-terminal tandem Flag-HA tag (other, Arabidopsis thaliana, UniProt Q39234 160-384, looked up)
chain: AGNMNSGIAAFEMEYTHWLEEQNRRVSEIRTALQAHIGDIELKMLVDSCLNHYANLFRMKADAAKADVFFLMSGMWRTSTERFFQWIGGFRPSELLNVVMPYVEPLTDQQLLEVRNLQQSSQQAEEALSQGLDKLQQGLVESIAIQIKVVESVNHGAPMASAMENLQALESFVNQADHLRQQTLQQMSKILTTRQAARGLLALGEYFHRLRALSSLWAARPREHT
notes: range 160-384; Crystallised as a dimer with palmitate (PDB 7TAE); not shown: C-terminal tandem Flag-HA tag
For the molecule B4, the binding result in data set [4] is on record as “binds”.

B5: Arabidopsis NPR1(deltaSBD) (Thr39-Asp410) with C-terminal Strep tag (other)
chain: TGPDVSALQLLSNSFESVFDSPDDFYSDAKLVLSDGREVSFHRCVLSARSSFFKSALAAAKKEKDSNNTAAVKLELKEIAKDYEVGFDSVVTVLAYVYSSRVRPPPKGVSECADENCCHVACRPAVDFMLEVLYLAFIFKIPELITLYQRHLLDVVDKVVIEDTLVILKLANICGKACMKLLDRCKEIIVKSNVDMVSLEKSLPEELVKEIIDRRKELGLEVPKVKKHVSNVHKALDSDDIELVKLLLKEDHTNLDDACALHFAVAYCNVKTATDLLKLDLADVNHRNPRGYTVLHVAAMRKEPQLILSLLEKGASASEATLEGRTALMIAKQATMAVECNNIPEQCKHSLKGRLCVEILEQEDKREQIPRD
notes: E. coli expressed, His10-MBP removed; Crystal structure PDB 7MK3; two dimers stack to a tetramer in the crystal; also called NPR1 (ASBD); NPR1 (^2SBD); not shown: C-terminal Strep tag
As to B5, in data set [5], the binding result is “binds”.
